Assay results published in patent publication US20260250378A1 (AGENCY FOR SCIENCE TECHNOLOGY AND RESEARCH, published 2026).
“And” between values parts separate entries of the source, which are not always exact repeats. Equal entries are not always repeated.

T1: CNX-his antigen (Genscript) (human, UniProt P27824 21-481, limits assumed)
T1 construct: also called human CNX-His; recombinant CNX-histidine tag
T1 sequence (looked up): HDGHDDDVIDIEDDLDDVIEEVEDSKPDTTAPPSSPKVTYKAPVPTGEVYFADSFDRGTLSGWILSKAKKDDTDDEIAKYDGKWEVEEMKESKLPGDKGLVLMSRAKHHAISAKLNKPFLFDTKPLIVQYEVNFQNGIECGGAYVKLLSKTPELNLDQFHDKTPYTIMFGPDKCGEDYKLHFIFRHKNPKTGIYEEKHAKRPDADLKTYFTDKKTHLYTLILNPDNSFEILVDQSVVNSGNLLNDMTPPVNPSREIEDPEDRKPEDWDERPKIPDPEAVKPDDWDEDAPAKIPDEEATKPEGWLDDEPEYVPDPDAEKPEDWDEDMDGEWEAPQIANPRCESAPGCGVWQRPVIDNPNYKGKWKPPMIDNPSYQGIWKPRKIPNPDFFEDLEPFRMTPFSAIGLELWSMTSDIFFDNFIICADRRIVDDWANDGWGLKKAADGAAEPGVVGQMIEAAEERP

T2: CRT in cell extracts (HeLa; MDA-231) (human, UniProt P27797 18-417)
T2 construct: Denatured endogenous protein in western blots; also called calreticulin
T2 sequence (looked up): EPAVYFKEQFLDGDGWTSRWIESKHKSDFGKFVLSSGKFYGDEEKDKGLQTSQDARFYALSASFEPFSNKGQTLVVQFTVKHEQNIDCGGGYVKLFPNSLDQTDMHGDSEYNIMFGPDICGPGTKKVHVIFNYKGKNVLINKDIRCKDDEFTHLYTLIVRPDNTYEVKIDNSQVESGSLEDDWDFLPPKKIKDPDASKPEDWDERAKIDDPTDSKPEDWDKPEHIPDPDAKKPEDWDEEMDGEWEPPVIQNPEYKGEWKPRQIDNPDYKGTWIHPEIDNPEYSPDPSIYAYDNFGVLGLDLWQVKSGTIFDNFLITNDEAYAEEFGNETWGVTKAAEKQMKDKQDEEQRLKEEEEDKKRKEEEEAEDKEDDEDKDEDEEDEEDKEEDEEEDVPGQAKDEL

T3: recombinant human CNX protein with a polyhistidine tag at the C-terminus (HuCANX_His) (human, UniProt P27824 21-481, limits assumed)
T3 construct: also called HuCANX with a His tag
T3 sequence (looked up): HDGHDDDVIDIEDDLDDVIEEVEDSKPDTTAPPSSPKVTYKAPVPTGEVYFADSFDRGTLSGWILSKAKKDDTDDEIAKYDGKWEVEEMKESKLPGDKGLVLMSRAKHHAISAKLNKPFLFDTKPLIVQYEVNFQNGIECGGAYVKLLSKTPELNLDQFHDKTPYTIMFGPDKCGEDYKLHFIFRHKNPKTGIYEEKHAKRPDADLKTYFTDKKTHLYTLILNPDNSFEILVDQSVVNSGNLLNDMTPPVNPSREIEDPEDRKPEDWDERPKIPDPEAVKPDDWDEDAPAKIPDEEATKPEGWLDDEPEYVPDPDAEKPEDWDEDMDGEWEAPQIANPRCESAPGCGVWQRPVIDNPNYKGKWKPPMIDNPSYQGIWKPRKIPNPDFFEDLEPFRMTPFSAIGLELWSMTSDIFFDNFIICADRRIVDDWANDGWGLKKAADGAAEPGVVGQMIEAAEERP

T4: MsCANX_His (mouse, UniProt P35564)
T4 construct: recombinant, C-terminal polyhistidine tag; also called recombinant mouse CANX protein with a polyhistidine tag at the C-terminus
T4 sequence (antigen, looked up): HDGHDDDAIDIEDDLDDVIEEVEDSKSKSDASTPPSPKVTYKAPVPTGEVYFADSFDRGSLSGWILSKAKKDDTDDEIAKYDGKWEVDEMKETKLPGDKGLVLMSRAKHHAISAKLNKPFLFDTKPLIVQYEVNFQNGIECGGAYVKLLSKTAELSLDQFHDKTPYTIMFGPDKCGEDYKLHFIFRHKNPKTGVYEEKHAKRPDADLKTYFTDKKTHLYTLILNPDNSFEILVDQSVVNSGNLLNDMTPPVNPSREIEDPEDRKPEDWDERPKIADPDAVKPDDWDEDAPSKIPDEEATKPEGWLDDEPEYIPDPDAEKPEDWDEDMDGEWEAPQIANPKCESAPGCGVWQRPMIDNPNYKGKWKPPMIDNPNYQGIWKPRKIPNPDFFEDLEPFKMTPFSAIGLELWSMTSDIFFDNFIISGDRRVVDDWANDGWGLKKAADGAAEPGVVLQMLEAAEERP

T5: Recombinant human CANX protein fused with the Fc region of human IgG1 at the C-terminus (HuCANX_hFc) (human, UniProt P27824 21-481, limits assumed, biotinylated in the ELISAs)
T5 construct: also called biotinylated HuCANX with a human Fc tag; not shown: Fc region of human IgG1 at the C-terminus
T5 sequence (looked up): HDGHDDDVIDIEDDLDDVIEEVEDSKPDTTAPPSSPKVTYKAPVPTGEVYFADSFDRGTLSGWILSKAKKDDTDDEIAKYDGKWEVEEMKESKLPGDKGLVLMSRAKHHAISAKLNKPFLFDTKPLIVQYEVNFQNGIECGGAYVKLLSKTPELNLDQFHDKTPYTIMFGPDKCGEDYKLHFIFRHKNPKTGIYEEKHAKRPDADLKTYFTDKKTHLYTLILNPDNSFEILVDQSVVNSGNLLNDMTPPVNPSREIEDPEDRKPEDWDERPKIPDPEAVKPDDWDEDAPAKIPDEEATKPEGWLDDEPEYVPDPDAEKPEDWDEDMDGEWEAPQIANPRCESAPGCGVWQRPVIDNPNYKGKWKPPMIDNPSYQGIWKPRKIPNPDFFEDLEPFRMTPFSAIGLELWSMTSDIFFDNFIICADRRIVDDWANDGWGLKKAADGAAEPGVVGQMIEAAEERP


How the values were obtained:
[1] = biological target: T1, CNX-his antigen (Genscript); assay: ELISA, CNX-his coated, antibody titrated, anti-human-HRP
[2] = biological target: T2, CRT in cell extracts (HeLa; MDA-231); assay: western blot, extracts of MDA-231 and MDA-231 CNX-/- cells
[3] = biological target: T3, recombinant human CNX protein with a …; assay: BLI, IgG1 on AHC biosensor, HuCANX_His 200-3.13 nM
Experimental: The 5 antibody clones were loaded and captured by the anti-human IgG Fc capture (AHC) biosensors. The biosensors were dipped into a range of HuCANX_His protein concentrations (from 200 nM to 3.13 nM, in 2-fold dilutions), the kinetics of the association and dissociation were then recorded.

[4] = biological target: T1, CNX-his antigen (Genscript); assay: ELISA, CNX-his coated, antibody titrated, HRP secondary, 4-parameter fit
Experimental: (§1) CNX-his antigen (Genscript) was diluted in bicarbonate/carbonate antigen coating buffer (100 mM NaHCO₃) and coated on maxisorp microplates shaking overnight at 4 C. […] The wells were washed 3 times with PBST before the addition of antibodies at several indicated dilution in 2% BSA-PBST and incubated for 1 hour at 37 C. The wells were washed 3 times with PBST. The specific anti-human secondary antibody conjugated with horseradish peroxidase was diluted and added to wells with a subsequent incubation for 1 hour at 37° C. Then wells were washed 3 times with PBST. Addition of TMB solution was performed and incubated at room temperature for 30 mins or until desired color change was attained. Addition of 0.1 M HCL to stop reaction was then added and measurement of absorbance at 450 nm on a microplate reader was then followed. […] CNX ab10286 (abcam) and a human Igg1 unrelated were used as positive and negative control respectively. 4 parameters logistic curve fit were used to calculate EC50.

[5] = biological target: T6, CNX-mcherry fluorescent protein expressed in Huh7 cells; assay: immunofluorescence, Huh7 CNX-mcherry cells minus plain Huh7 cells, anti-human Alexa 647
T6 construct: Target of immunofluorescence staining inside transfected Huh7 cells
Excerpt: A secondary anti-human antibody conjugated to Alexa fluorophore 647 was used. […] The signal obtained from normal Huh7 without CNX mCherry was used to normalize the signal obtained with Huh7 CNX-mcherry. […] Thus, these specific antibodies could detect CNX overexpression in CNX mCherry cells in immunofluorescence application settings.

[6] = biological target: T4, MsCANX_His; assay: BLI, IgG1 on AHC biosensor, MsCANX_His 200-0.39 nM
Experimental: The binding affinity of the 15 antibody clones to recombinant mouse CANX protein with a polyhistidine tag at the C-terminus (MsCANX_His) was measured by Bio-Layer Interferometry. The 15 antibody clones were loaded and captured by the anti-human IgG Fc capture (AHC) biosensors (FIG. 6). The biosensors were dipped into a range of MsCANX_His protein concentrations (from 200 nM to 0.39 nM, in 2-fold dilutions), the kinetics of the association and dissociation were then recorded.

[7] = biological target: T2, CRT in cell extracts (HeLa; MDA-231); assay: immunoblot of HeLa extracts (WT, CNX KD, CRT KD), anti-human HRP
Experimental: All Fabs converted to IgG1 were tested for western blotting detection using Hela extract from cells untreated or subjected to 72H knock down with an siRNA against CNX or CRT (CRT). After SDS-PAGE and transfer to nitrocellulose membranes, membranes were blocked with BSA and incubated with 1 μg/ml antibody solution overnight, following multiple washes, an anti-human HRP secondary antibody was used for detection of tested antibodies.

[8] = biological target: T5, Recombinant human CANX protein fused …; assay: ELISA, IgG1 coated 2 ug/ml, biotinylated antigen titrated (EC50 is of the antigen), streptavidin-HRP
Experimental: The 15 antibody clones were tested using ELISA against biotinylated recombinant HuCANX_hFc protein to assess binding avidity for the target, with an irrelevant IgG1 used as a negative control antibody. In brief, the 15 antibody clones were coated at 2 μg/ml onto the 96-well ELISA plates overnight at 4° C. After blocking with casein for 2 hours, the biotinylated antigen was added at different concentrations (3 times serial dilutions) and incubated for 1 hour. The wells were then washed with PBST and detected by HRP conjugated streptavidin. […] antibody clones were also tested in ELISA against recombinant HuCANX_His protein to assess binding affinity for the target, with an irrelevant IgG1 used as a negative control antibody. In brief, the 15 antibody clones were coated at 10 nM onto the 96-well ELISA plates overnight at 4° C. After blocking with casein for 2 hours, the antigen was added at different concentrations (3 times serial dilutions) and incubated for 1 hour. The wells were then washed with PBST and detected by HRP conjugated anti-His tag antibody.

[9] = biological target: T1, CNX-his antigen (Genscript); assay: ELISA, CNX-his coated, antibody titrated, HRP secondary, 4-parameter fit; printed in grey: Curve did not plateau in ELISA
Experimental: as §1

[10] = biological target: T7, BSA (UniProt P02769 25-607); assay: ELISA, BSA-coated control wells
T7 construct: Control coating in ELISAs; also called bovine serum albumin

[11] = biological target: T1, CNX-his antigen (Genscript); assay: ELISA, His-tagged human CNX coated, serial dilutions of antibody
[12] = biological target: T1, CNX-his antigen (Genscript); assay: ELISA with serial dilutions of the antibody on coated His-tagged human CNX

T6 sequence (P27824 whole entry): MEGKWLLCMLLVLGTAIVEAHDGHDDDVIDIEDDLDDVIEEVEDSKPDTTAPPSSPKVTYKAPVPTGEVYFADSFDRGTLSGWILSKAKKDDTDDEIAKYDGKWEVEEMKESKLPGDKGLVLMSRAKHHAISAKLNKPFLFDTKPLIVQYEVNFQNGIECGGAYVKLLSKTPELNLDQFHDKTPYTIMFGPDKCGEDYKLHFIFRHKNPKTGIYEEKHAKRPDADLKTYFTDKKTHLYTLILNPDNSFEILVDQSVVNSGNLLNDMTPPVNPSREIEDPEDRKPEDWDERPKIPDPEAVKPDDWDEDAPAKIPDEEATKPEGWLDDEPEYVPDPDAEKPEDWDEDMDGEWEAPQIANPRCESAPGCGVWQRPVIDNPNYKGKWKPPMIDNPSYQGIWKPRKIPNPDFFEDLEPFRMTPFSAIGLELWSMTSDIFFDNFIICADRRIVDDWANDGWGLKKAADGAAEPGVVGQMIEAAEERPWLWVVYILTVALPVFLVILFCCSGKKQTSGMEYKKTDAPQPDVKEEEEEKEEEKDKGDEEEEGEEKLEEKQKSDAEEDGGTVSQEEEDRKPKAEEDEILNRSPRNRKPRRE
T7 sequence (P02769 25-607 limits assumed): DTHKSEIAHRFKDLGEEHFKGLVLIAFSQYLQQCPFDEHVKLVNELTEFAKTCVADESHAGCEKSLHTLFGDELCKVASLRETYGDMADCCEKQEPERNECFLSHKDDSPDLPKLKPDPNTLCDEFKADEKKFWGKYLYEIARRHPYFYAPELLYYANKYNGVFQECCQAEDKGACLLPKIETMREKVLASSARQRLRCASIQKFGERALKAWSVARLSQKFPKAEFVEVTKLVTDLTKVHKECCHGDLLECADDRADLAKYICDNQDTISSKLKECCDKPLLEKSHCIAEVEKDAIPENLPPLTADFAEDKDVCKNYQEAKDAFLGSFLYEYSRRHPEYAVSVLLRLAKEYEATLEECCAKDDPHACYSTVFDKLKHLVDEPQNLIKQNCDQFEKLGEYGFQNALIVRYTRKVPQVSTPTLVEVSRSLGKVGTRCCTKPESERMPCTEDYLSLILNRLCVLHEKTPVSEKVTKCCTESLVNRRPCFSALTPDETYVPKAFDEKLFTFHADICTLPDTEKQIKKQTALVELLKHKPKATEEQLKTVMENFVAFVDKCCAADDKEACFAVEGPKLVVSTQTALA

EC50 [1] [nM] | binding result [2] | Kd [3] [nM] | koff [3] [s⁻¹] | kon [3] [M⁻¹ s⁻¹] | EC50 [4] | Intensity (CNX+ cells - CNX -ve) [5] | Kd [6] [nM] | koff [6] [s⁻¹] | kon [6] [M⁻¹ s⁻¹] | binding result [7] | EC50 [8] [nM] | EC50 [9] [ng/mL] | EC50 [11] [ng/mL] | EC50 (read off the curve) [12] [ng/mL] | Binder | binding result [10]
> 0.1 | binds | 5.56 | 0.000225 | 40400 | 0.0643 µg/mL and 0.43 nM | 3140 | – | – | – | – | – | – | – | – | C008 IgG1 (antibody, V domains shown, scFv clone 8 converted to human IgG1 (pFUSEss-CHIg-hG1 and pFUSE2ss-CLIg-hl2); also called IgG1 clone 8; Igg clone 8) VH: QVQLVQSGGGVVQPGRSLRLSCAASGFTVSSNYMSWVRQAPGKGLEWVSVIYSGGSTYYADSVKGRFTISRDNSKNTLYLQMNSLRAEDTAVYYCARGSRAVAGAFDYWGQGTLVTVSS VL: YSELTQDPAVSVALGQTVRITCQGDSLRTYYANWYQQKPGQAPVLVMYAKNHRPSGIPDRFSGSSSGNTASLTITGAQAEDEADYYCGSRDSSGNHPVFGGGTKVTVLG | –
– | – | – | – | – | – | 945 | 5.8 | 0.00111 | 192000 | no binding (tested: 1 ug/ml) | 2.14 | 8490 | – | – | 5E8 IgG1 (antibody) heavy: not shown light: DIQLTQSPSSLSASVGDRVTITCRASQSISTYINWYQQKPGKAPKLLIYFASSLQSGVPSRFSGGGSGTDFTLTISSLQPEDFATYYCQQSYNIPVTFGQGTKVEVTRTVAAPSIFIFPPSDEQLKSGTASVVCLLNNFYPREAKVQWKVDNALQSGNSQESVTEQDSKDSTYSLSSTLTLSKADYEKHKVYACEVTHQGLSSPVTKSFNRGEC | –
– | – | – | – | – | – | – | – | – | – | – | – | – | ~0.0031 | ~3 | monoclonal anti-CNX antibody clone 2G9 (antibody, V domains shown, also called 2GP) VH: QVTLKESGGGVVQPGRSLRLSCAASGFTFSSYGMHWVRQAPGKGLEWVAVISYDGSNKYYADSVKGRFTISRDNSKNTLYLQMNSLRAEDTAVYYCTQGRDYWGQGTLVTVSS VL: QAVLTQPSSLSASPGASASLTCTLRSGINVGTYRIYWYQQKPGSPPQYLLRYKSDSDKQQGSGVPSRFSGSKDASANAGILLISGLQSEDEADYYCMIWHSSAWVFGGGTKLTVL | no binding (tested: 10 ug/ml (concentration from the text))
